Reference: US20230321287A1, “RADIOLABELLED GRPR-ANTAGONIST FOR USE AS THERAGNOSTIC” (NOVARTIS AG, priority 2019, published 2023)

Experiment: clinical
Settings: human, Relative radiotracer uptake
Description: The primary objective was to characterize preliminary targeting properties of [68Ga] NeoB in patients with malignancies known to overexpress GRPR. The primary efficacy endpoints were: • Number and location of tumor lesions detected by [68Ga]-NeoBOMB1 overall and for each tumor type • Calculation of the ratio tumor/background standard uptake value (SUV) and %injected dose per gram of tissue (ID/g) and calculation of absorbed dose (mGy/MBq) in tumor overall and for each tumor type.
Accordingly, highest relative tracer uptake following administration of a bombesin antagonist is expected in pancreas, kidney, and liver (Roivainen et al, 2013).

For `CC(C)CC(CC(C)C)NC(=O)[C@H](Cc1cnc[nH]1)NC(=O)CNC(=O)[C@@H](NC(=O)[C@H](C)NC(=O)[C@H](Cc1c[nH]c2ccccc12)NC(=O)[C@H](CCC(N)=O)NC(=O)[C@@H](Cc1ccccc1)NC(=O)COCC(=O)Nc1ccc(CNC(=O)CN2CCN(CC(=O)O)CCN(CC(=O)O)CCN(CC(=O)O)CC2)cc1)C(C)C` [[68Ga]-NeoB, metal not drawn], the tissue uptake at 0.25 h (Liver, patient FR01-008, 15 min/38.6 min actual) was 0.00794 %ID/g, the tissue uptake at 0.25 h (alveolar-interstitial (lungs), total radioactivity, patient FR01-009, 15 min/17.8 min actual) was 0.00124 %ID/g and the tissue uptake at 1 h (alveolar-interstitial (lungs), total radioactivity, patient FR01-009, 60 min/60.7 min actual) was 0.000884 %ID/g. It also gave a tissue uptake at 2 h (alveolar-interstitial (lungs), total radioactivity, patient FR01-009, 120 min/123.9 min actual) of 0.000591 %ID/g, a tissue uptake at 4 h (alveolar-interstitial (lungs), total radioactivity, patient FR01-009, 240 min/207.9 min actual) of 0.000386 %ID/g and a tissue uptake at 0.25 h (heart wall, total radioactivity, patient FR01-009, 15 min/17.8 min actual) of 0.0034 %ID/g. It also gave a tissue uptake at 1 h (heart wall, total radioactivity, patient FR01-009, 60 min/60.7 min actual) of 0.00207 %ID/g, a tissue uptake at 2 h (heart wall, total radioactivity, patient FR01-009, 120 min/123.9 min actual) of 0.00142 %ID/g and a tissue uptake at 4 h (heart wall, total radioactivity, patient FR01-009, 240 min/207.9 min actual) of 0.000928 %ID/g. It also gave a tissue uptake at 0.25 h (kidneys, total radioactivity, patient FR01-009, 15 min/17.8 min actual) of 0.0048 %ID/g, a tissue uptake at 1 h (kidneys, total radioactivity, patient FR01-009, 60 min/60.7 min actual) of 0.0038 %ID/g and a tissue uptake at 2 h (kidneys, total radioactivity, patient FR01-009, 120 min/123.9 min actual) of 0.00505 %ID/g. For the same compound, the tissue uptake at 4 h (kidneys, total radioactivity, patient FR01-009, 240 min/207.9 min actual) was 0.00278 %ID/g, the tissue uptake at 1 h (liver, total radioactivity, patient FR01-008, 60 min/62.6 min actual) was 0.00296 %ID/g and the tissue uptake at 2 h (liver, total radioactivity, patient FR01-008, 120 min/123.2 min actual) was 0.00197 %ID/g. The tissue uptake at 4 h (liver, total radioactivity, patient FR01-008, 240 min/221.1 min actual) was 0.00162 %ID/g, the tissue uptake at 0.25 h (liver, total radioactivity, patient FR01-009, 15 min/17.8 min actual) was 0.00866 %ID/g and the tissue uptake at 1 h (liver, total radioactivity, patient FR01-009, 60 min/60.7 min actual) was 0.00564 %ID/g. It also gave a tissue uptake at 2 h (liver, total radioactivity, patient FR01-009, 120 min/123.9 min actual) of 0.00428 %ID/g, a tissue uptake at 4 h (liver, total radioactivity, patient FR01-009, 240 min/207.9 min actual) of 0.00317 %ID/g and a tissue uptake at 0.25 h (pancreas, total radioactivity, patient FR01-008, 15 min/38.6 min actual) of 0.0471 %ID/g. For the same compound, the tissue uptake at 1 h (pancreas, total radioactivity, patient FR01-008, 60 min/62.6 min actual) was 0.0484 %ID/g, the tissue uptake at 2 h (pancreas, total radioactivity, patient FR01-008, 120 min/123.2 min actual) was 0.0545 %ID/g and the tissue uptake at 4 h (pancreas, total radioactivity, patient FR01-008, 240 min/221.1 min actual) was 0.0628 %ID/g. For the same compound, the tissue uptake at 0.25 h (pancreas, total radioactivity, patient FR01-009, 15 min/17.8 min actual) was 0.0215 %ID/g, the tissue uptake at 1 h (pancreas, total radioactivity, patient FR01-009, 60 min/60.7 min actual) was 0.0291 %ID/g and the tissue uptake at 2 h (pancreas, total radioactivity, patient FR01-009, 120 min/123.9 min actual) was 0.0345 %ID/g. For the same compound, the tissue uptake at 4 h (pancreas, total radioactivity, patient FR01-009, 240 min/207.9 min actual) was 0.0374 %ID/g, the tissue uptake at 0.25 h (red (active) marrow, total radioactivity, patient FR01-008, 15 min/38.6 min actual) was 0.00331 %ID/g and the tissue uptake at 1 h (red (active) marrow, total radioactivity, patient FR01-008, 60 min/62.6 min actual) was 0.00116 %ID/g. For the same compound, the tissue uptake at 2 h (red (active) marrow, total radioactivity, patient FR01-008, 120 min/123.2 min actual) was 0.000916 %ID/g, the tissue uptake at 4 h (red (active) marrow, total radioactivity, patient FR01-008, 240 min/221.1 min actual) was 0.000346 %ID/g and the tissue uptake at 0.25 h (red (active) marrow, total radioactivity, patient FR01-009, 15 min/17.8 min actual) was 0.00186 %ID/g. For the same compound, the tissue uptake at 1 h (red (active) marrow, total radioactivity, patient FR01-009, 60 min/60.7 min actual) was 0.00136 %ID/g, the tissue uptake at 2 h (red (active) marrow, total radioactivity, patient FR01-009, 120 min/123.9 min actual) was 0.000998 %ID/g and the tissue uptake at 4 h (red (active) marrow, total radioactivity, patient FR01-009, 240 min/207.9 min actual) was 0.000722 %ID/g. It also gave a tissue uptake at 0.25 h (spleen, total radioactivity, patient FR01-008, 15 min/38.6 min actual) of 0.00409 %ID/g, a tissue uptake at 1 h (spleen, total radioactivity, patient FR01-008, 60 min/62.6 min actual) of 0.00211 %ID/g and a tissue uptake at 2 h (spleen, total radioactivity, patient FR01-008, 120 min/123.2 min actual) of 0.00141 %ID/g. The tissue uptake at 0.25 h (spleen, total radioactivity, patient FR01-009, 15 min/17.8 min actual) was 0.00338 %ID/g, the tissue uptake at 1 h (spleen, total radioactivity, patient FR01-009, 60 min/60.7 min actual) was 0.00256 %ID/g and the tissue uptake at 2 h (spleen, total radioactivity, patient FR01-009, 120 min/123.9 min actual) was 0.00191 %ID/g. It also gave a tissue uptake at 4 h (spleen, total radioactivity, patient FR01-009, 240 min/207.9 min actual) of 0.00145 %ID/g, a tissue uptake at 0.25 h (tumor lesion T1-lungL, total radioactivity, patient FR01-009, 15 min/17.8 min actual) of 0.00367 %ID/g and a tissue uptake at 1 h (tumor lesion T1-lungL, total radioactivity, patient FR01-009, 60 min/60.7 min actual) of 0.00455 %ID/g. The tissue uptake at 2 h (tumor lesion T1-lungL, total radioactivity, patient FR01-009, 120 min/123.9 min actual) was 0.00481 %ID/g, the tissue uptake at 4 h (tumor lesion T1-lungL, total radioactivity, patient FR01-009, 240 min/207.9 min actual) was 0.00385 %ID/g and the tissue uptake at 0.25 h (tumor lesion T2-lungR, total radioactivity, patient FR01-009, 15 min/17.8 min actual) was 0.00466 %ID/g. For the same compound, the tissue uptake at 1 h (tumor lesion T2-lungR, total radioactivity, patient FR01-009, 60 min/60.7 min actual) was 0.00463 %ID/g, the tissue uptake at 2 h (tumor lesion T2-lungR, total radioactivity, patient FR01-009, 120 min/123.9 min actual) was 0.00377 %ID/g and the tissue uptake at 4 h (tumor lesion T2-lungR, total radioactivity, patient FR01-009, 240 min/207.9 min actual) was 0.00248 %ID/g. For the same compound, the tissue uptake at 0.25 h (tumor lesion T3-liverL, total radioactivity, patient FR01-009, 15 min/17.8 min actual) was 0.0135 %ID/g, the tissue uptake at 1 h (tumor lesion T3-liverL, total radioactivity, patient FR01-009, 60 min/60.7 min actual) was 0.018 %ID/g and the tissue uptake at 2 h (tumor lesion T3-liverL, total radioactivity, patient FR01-009, 120 min/123.9 min actual) was 0.00984 %ID/g. It also gave a tissue uptake at 4 h (tumor lesion T3-liverL, total radioactivity, patient FR01-009, 240 min/207.9 min actual) of 0.0178 %ID/g.
